Test results taken from patent US20260226160A1 (ISAR BIOSCIENCE, published 2026).
Residue numbers refer to the chain shown, from its start. Values belong to the binder of their own block, whether it stands above or below them.

Assays:
[1] = target: T1, human TREM2 (hTREM2) on cells (human, UniProt Q9NZC2 19-230); experiment: cell-based or functional assay
T1 sequence (looked up): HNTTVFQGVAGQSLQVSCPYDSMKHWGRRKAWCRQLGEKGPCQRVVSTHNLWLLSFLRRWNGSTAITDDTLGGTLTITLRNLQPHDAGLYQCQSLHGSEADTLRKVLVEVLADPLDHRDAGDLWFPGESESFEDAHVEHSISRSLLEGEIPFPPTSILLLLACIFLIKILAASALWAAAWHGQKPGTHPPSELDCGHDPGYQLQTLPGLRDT

[2] = target: T1, human TREM2 (hTREM2) on cells; experiment: printed with the p-SYK titration curve of M07 on HEK293-Flp-In hTREM2/hDAP12 cells (FIG. 6B); how it was derived is not told
Experimental: Phosphorylated SYK (p-Syk) was measured using the AlphaLISA SureFire Ultra p-SYK Assay Kit (PerkinElmer, ALSU-PSYK-A-HV) following the manufacturer's instructions. Briefly, HEK293 cells overexpressing human TREM2 and human DAP12 were plated in 50 μl media at a density of 50,000 cells/well in a 96-well plate and incubated overnight at 37° C. in a cell culture incubator. The next day medium was removed and 50 μl of antibody diluted in medium was added to the cells. Following an incubation for 5 min at 37° C. treatment solutions were removed and cells were lysed with 50 μl lysis buffer supplemented with phosphatase inhibitor (VWR) for 10 min on a plate shaker (~350 rpm). 30 μl of lysate were then used for further incubation steps with acceptor and donor beads (each for 1 h) following analysis using a CLARIOstar^Plus Plate Reader (BMG Labtech).

[3] = target: T2, extracellular domain of human TREM2 (ecTREM2), Hölzel Diagnostika 11084-H08H (human, UniProt Q9NZC2 19-174); experiment: ELISA, coated ecTREM2
T2 construct: extracellular domain; also called human ecTREM2; ecTREM2 domain
T2 sequence (looked up): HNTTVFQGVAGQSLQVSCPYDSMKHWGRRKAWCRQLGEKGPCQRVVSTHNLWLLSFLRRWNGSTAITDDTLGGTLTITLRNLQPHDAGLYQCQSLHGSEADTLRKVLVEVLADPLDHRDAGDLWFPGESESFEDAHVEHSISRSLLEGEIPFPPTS
Experimental: (§1) Anti-TREM2 antibody binding to the extracellular domain of TREM2 (ecTREM2) or to the human or mouse peptide fragment of the stalk region of TREM2 were quantified in an ELISA assay. All procedures were performed at room temperature and incubations were done on a microtiter plate shaker. ELISA plate was coated with 60 μl/well (final concentration 0.5 μg/ml) of the according ligand (ecTREM2 (Hölzel Diagnostika, 11084-H08H) or human or mouse TREM2 peptide fragment) in coating buffer (NaHCO₃) for 1 h. The coated plate was washed three times with PBS-T (PBS, 0.1% Tween-20), blocked with 100 μl/well of blocking solution (PBS-T, 3% milk powder) for 1 h, and washed again. Antibodies were pre-diluted 1:10 in PBS and set to a concentration of 1 μg/ml. A dilution series was performed with dilution steps of 1:3 and 1:10. 50 μl/well of diluted AB were transferred to the blocked ELISA plate and incubated for 1 h. The plate was washed three times with PBS-T and incubated with anti-human-Strep-POD (Jackson Immunoresearch, #109-035-098) diluted in PBS-T 1:10000 for 1 h. After washing three times, bound POD was detected by incubation with 100 μl/well of TMB substrate (Thermo Scientific, #34029) until a maximal optical density (OD) of about 1 to 2 was reached. Finally, the colorimetric reaction was stopped with 100 μl/well stopping solution (1M H₂SO₄) and the OD determined at a wavelength of 450 nm with a reference wavelength of 595 nm in a plate reader (SpectraMax i3xl).
(§2) We determined the binding affinity of all antibody clones including M07 as well as of the control antibody H01 and negative control (not shown here), to ecTREM2 by an ELISA-based binding assay (FIG. 2).

[4] = target: T1, human TREM2 (hTREM2) on cells; experiment: cell-based or functional assay; remark: listed apart in the source
[5] = target: T3, epitope peptide from the human TREM2 stalk region (DAGDLWFPG) (human); experiment: ELISA, coated epitope peptide SEQ ID NO: 16
T3 construct: also called human TREM2 peptide fragment
T3 peptide: DAGDLWFPG
Experimental: as §1

[6] = target: T2, extracellular domain of human TREM2 …; experiment: ELISA, coated ecTREM2 (0.5 µg/ml), antibody dilution series
Experimental: as §1, with “A dilution series was performed with dilution steps of 1:3 and 1:10. 50 μl/well of diluted AB were transferred to the blocked ELISA plate and incubated for 1 h. The plate was washed three times with PBS-T and incubated with anti-human-Strep-POD (Jackson Immunoresearch, #109-035-098) diluted in PBS-T 1:10000 for 1 h.” left out
as §2

[7] = target: T3, epitope peptide from the human TREM2 …; experiment: ELISA, coated epitope peptide (0.5 µg/ml), antibody dilution series
Experimental: as §1, with “The plate was washed three times with PBS-T and incubated with anti-human-Strep-POD (Jackson Immunoresearch, #109-035-098) diluted in PBS-T 1:10000 for 1 h.” left out

Mean values of fold increase over baseline (p-SYK AlphaLISA, 40 µg/ml antibody, HEK293-Flp-In hTREM2/hDAP12) [1]: 36.1 fold | Kd [2]: 2.19 nM | EC50 [3]: 0.204 nM | EC50 of p-SYK signaling titration in HEK293-Flp-In hTREM2/hDAP12 [4]: 4.39 nM | SYK phosphorylation, fold increase [4]: ≤ 60 fold | EC50 [5]: 0.335 nM
B1: antibody M07 (clone M07), fully human anti-hTREM2 IgG1-LALA-TFN (antibody, V domains shown)
VH: EVQLLESGGGLVQPGGSLRLTCAASGFTFSSYAMSWVRQAPGKGLEWVSVINGRGSNTYYADSVKGRFTITRDNSKNTLYLEMNSLRAEDTAVYYCARVRAYSGPSYGFDYWGQGTLVTVSS
VL: DIQLTQSPLSLSASAGDRVTITCRASQSIRDYLGWYQQKPGKAPKLLIYAASKLQSGVPSRFSGSGSGTDFTLTISSLQPEDFATYYCQQSYHTPPFTFGQGTKVEIKR
notes: leaders are cleaved off; also called anti-hTREM2 antibody M07; MO7

Mean values of fold increase over baseline (p-SYK AlphaLISA, 40 µg/ml antibody, HEK293-Flp-In hTREM2/hDAP12) [1]: 9.39 fold | EC50 [3]: 0.35 nM | EC50 [5]: 0.329 nM
B2: antibody M03 (clone M03), fully human IgG1-LALA (antibody, V domains shown)
VH: EVQLVQSGGGLVQPGGSLRLSCAASGFTFSSYGITWVRQAPGKGLEWVSFISGGGSYTYYADSVKGRFTISRDNAKRTLYLQMNSLRAEDTAVYYCARSGRAYFDYWGQGTLVTVSS
VL: DIRLTQPPSVSGAPGQRVTISCSGSSSNIGSLFVSWYQQLPGTAPKLLIYSNSQHPSGVPDRFSGSKSGTSASLAITGLQAEDEADYYCSAYDQFSNSVVFGGGTKLTVLG

Mean values of fold increase over baseline (p-SYK AlphaLISA, 40 µg/ml antibody, HEK293-Flp-In hTREM2/hDAP12) [1]: 1.07 fold | binding result [6]: no binding | binding result [7]: no binding
B3: antibody M05 (clone M05), fully human IgG1-LALA (antibody, V domains shown)
VH: EVQLLESGGGLVQPGGSLRLSCAASGFTFSSNAMTWVRQAPGKGLEWVSVIGSSGSYTYYADSVKGRFTISRDNSKNTLYLQMNSLRAEDTAVYYCARSGTTGFDYWGQGTLVTVSS
VL: B2 VL with R3V, L4M, G12V, A13T, S23R, G24S, G111R

Mean values of fold increase over baseline (p-SYK AlphaLISA, 40 µg/ml antibody, HEK293-Flp-In hTREM2/hDAP12) [1]: 3.22 fold | EC50 [3]: 0.19 nM | EC50 [5]: 0.832 nM
B4: antibody H08 (clone H08), fully human IgG1-LALA (antibody, V domains shown)
VH: EVQLVQSGGGLVQPGGSLRLSCAASGFTFSSYAMSWVRQAPGKGLEWVSAISGSGGSTYYADSVKGRFTISRDNAKRSLYLQMNDLRVEDTAVYYCARTRTNVFDFWGQGTMVTVSS
VL: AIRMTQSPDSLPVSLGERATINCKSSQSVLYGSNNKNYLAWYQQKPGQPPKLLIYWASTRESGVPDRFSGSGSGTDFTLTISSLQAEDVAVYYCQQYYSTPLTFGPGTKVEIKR
